Source: the supplement of paper PMC9732359
± gives the uncertainty stated by the source.

Experiment: protein stability index of a GFP-peptide fusion (yeast GPS) (PSI 1-4); higher = more stable; sorted into four equal gates, so the index is relative within each strain
In short: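 Mid-log yeast cultures in leucine-free medium, carrying a pooled plasmid library, were sorted into four equal gates by their GFP/Cherry fluorescence ratio. Each plasmid expressed Cherry along with GFP fused upstream of a tiled 17-residue yeast protein peptide. Plasmids recovered from each gate were PCR-amplified and Illumina-sequenced, with reads assigned to strains by barcodes. The protein stability index was obtained by summing each gate's read frequency weighted by its gate number.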

| Sequence | protein stability index (doa10∆) | protein stability index (pdr5∆) | protein stability index (san1∆) | protein stability index (ubr1∆) |
| --- | --- | --- | --- | --- |
| GGRMFAPTKTWRKWNVK [RPL4A] | 2.87 ± 0.12 | 2.88 ± 0.11 | 3.07 ± 0.065 | 2.16 ± 0.056 |
| RIFKITEKLSPLASEES [YGL100W/SEH1] | 2.82 ± 0.056 | 2.5 ± 0.055 | 2.41 ± 0.066 | 2.57 ± 0.032 |
| HILPEVPPVENFPVRQW [TAF14] | 2.71 ± 0.12 | 3.05 ± 0.088 | 2.95 ± 0.073 | 3.05 ± 0.055 |
| PVKVSGTIKKIEQFAMR [POP5] | 2.54 ± 0.089 | 2.65 ± 0.058 | 2.34 ± 0.082 | 2.56 ± 0.042 |
| SNDLCSQIFDQLKDMQT [SRB8] | 2.72 ± 0.047 | 2.67 ± 0.042 | 2.47 ± 0.049 | 2.71 ± 0.034 |
| MNGNSTNNEQLQQELAT [NUT2] | 3.2 ± 0.06 | 3.15 ± 0.075 | 3.1 ± 0.053 | 3.07 ± 0.062 |
| LEDLKNTKEIAVDLEHH [RRP6] | 2.66 ± 0.061 | 2.54 ± 0.047 | 2.48 ± 0.056 | 2.7 ± 0.038 |
| TSKQHKRSGHRTAPKSD [RPL18A] | 3.18 ± 0.23 |  | 3.1 ± 0.14 | 3.06 ± 0.2 |
| SVTRAGNIISSDKTIVP [SIN4] | 3.01 ± 0.12 | 2.88 ± 0.099 | 2.97 ± 0.12 | 3.1 ± 0.068 |
| KLTDEQSSLDVAGLEDK [SIR3] | 2.68 ± 0.083 | 2.85 ± 0.13 | 2.75 ± 0.083 | 3.1 ± 0.062 |
| YSDENDPSISNNIRQAI [RRP4] | 2.53 ± 0.077 | 2.75 ± 0.066 | 3 ± 0.065 | 2.47 ± 0.061 |
| FFDGSASSTPIPVLGKP [YOR098C/NUP1] | 2.6 ± 0.044 | 2.94 ± 0.04 | 2.72 ± 0.036 | 2.67 ± 0.026 |
| ISYLQEVQCTSTPYLEI [PCI8] | 2.68 ± 0.16 |  | 1.7 ± 0.2 | 1.81 ± 0.22 |
| KAGGECITLDQLAVRAP [RPL18A] | 2.1 ± 0.097 | 2.29 ± 0.085 | 2.86 ± 0.072 | 2.57 ± 0.077 |
| EPIRFLPNQFPLKIHRT [SWI1] | 1.66 ± 0.06 | 1.81 ± 0.075 | 1.59 ± 0.12 | 1.73 ± 0.07 |
| MPFWKFFMKNFPFVLKV [SRB8] | 2.8 ± 0.23 | 1.99 ± 0.11 | 2.03 ± 0.12 | 2.04 ± 0.1 |
| LQNCCIIDVGTHHTDII [ARP9] | 1.43 ± 0.11 | 1.9 ± 0.07 | 1.51 ± 0.15 | 2.28 ± 0.066 |
| KAKRSNLYTPKAEMPPE [PRP8] | 2.98 ± 0.084 | 3.05 ± 0.081 | 2.84 ± 0.063 | 2.89 ± 0.077 |
| NSIDINYKGLPKKYKEN [SMC1] | 2.91 ± 0.068 | 3.16 ± 0.08 | 3.21 ± 0.07 | 3.36 ± 0.059 |
| NTVMLQGIFKNSSNYFG [AAR2] | 2.21 ± 0.15 | 1.29 ± 0.094 | 2.15 ± 0.14 | 1.46 ± 0.2 |
| ETISAIEHPMTSAIEVL [RPN1] | 1.49 ± 0.048 | 1.72 ± 0.042 | 1.76 ± 0.071 | 1.8 ± 0.044 |
| RTDQYTIDNIDSENFSF [YMR129W/POM152] | 2.88 ± 0.042 | 2.99 ± 0.043 | 2.91 ± 0.039 | 3.01 ± 0.036 |
| RMSYGSHDKKTKCSTVV [SRP14] | 2.96 ± 0.092 | 3.07 ± 0.12 | 3.19 ± 0.045 | 3.33 ± 0.088 |
| RTGPKALPDAVTIIEPK [RPS3] | 2.97 ± 0.058 | 3.03 ± 0.066 | 3.1 ± 0.059 | 3.09 ± 0.06 |
| VEGHLFEIIDEASKKSA [FAS1] | 3.26 ± 0.17 | 3.5 ± 0.15 | 3.22 ± 0.06 | 3.33 ± 0.073 |
| ITKMLASDESLLRYGGA [RPN2] | 3.28 ± 0.11 | 3.41 ± 0.17 | 3.23 ± 0.11 | 3.82 ± 0.22 |
| DFGFDLDIEKEAPAGNI [MCD1] | 2.76 ± 0.26 |  |  | 3.3 ± 0.15 |

| Sequence | protein stability index (doa10∆) | protein stability index (pdr5∆) | protein stability index (san1∆) | protein stability index (ubr1∆) |
| --- | --- | --- | --- | --- |
| ANANANATANATANATA [SNF11] | 3.14 ± 0.037 | 3.37 ± 0.037 | 3.285 ± 0.031 | 3.342 ± 0.029 |
| DNKIDIYQIHIPYAAKL [RPB2] | 3.16 ± 0.082 | 2.5 ± 0.11 | 3.15 ± 0.092 | 2.92 ± 0.063 |
| GFPSAPQPLFMEDPPST [YMR153W/NUP53] | 2.66 ± 0.06 | 3.08 ± 0.056 | 2.98 ± 0.053 | 2.8 ± 0.052 |
| GDVSSGLFEKSTVSANH [BRN1] | 2.84 ± 0.12 | 3.31 ± 0.094 | 2.74 ± 0.11 |  |
| NVTSSGDHNKLRSTIAN [YML103C/NUP188] | 2.43 ± 0.051 | 2.48 ± 0.062 | 2.35 ± 0.071 | 2.02 ± 0.033 |
| SYHLWPSFTDEQWITIE [PRP8] | 2.44 ± 0.089 | 2.66 ± 0.061 | 2.82 ± 0.09 | 2.57 ± 0.057 |
| APIPKGRVKYTKRQKHF [POP1] | 1.2 ± 0.13 | 1.9 ± 0.12 | 2.2 ± 0.13 | 1.77 ± 0.082 |
| DWQMMTSPVTGATEKRK [CSL4] | 2.44 ± 0.07 | 2.03 ± 0.11 | 2.3 ± 0.12 | 1.52 ± 0.062 |
| SRENNSEYMVFGKLAFP [YJL039C/NUP192] | 2.49 ± 0.064 | 2.54 ± 0.072 | 2.97 ± 0.069 | 2.79 ± 0.082 |
| TLDKKDSIPLRITNSFY [RPN9] | 2.52 ± 0.13 | 2.81 ± 0.11 | 2.9 ± 0.096 | 2.92 ± 0.13 |
| KSSAFVIDIGASGCNVT [ARP7] | 1.81 ± 0.039 | 2.46 ± 0.063 | 2.17 ± 0.067 | 2.55 ± 0.045 |
| RLISQSLLASKSTYRTP [RIP1] | 2.79 ± 0.12 | 3.04 ± 0.21 | 2.82 ± 0.22 | 2.45 ± 0.14 |
| VEECPQYIRTLVSEART [SSN8] | 1.67 ± 0.1 | 1.7 ± 0.1 | 1.6 ± 0.14 | 1.87 ± 0.061 |
| WRFHTPQKYVLHPQLHE [SIN4] | 2.17 ± 0.071 | 2.11 ± 0.069 | 1.78 ± 0.13 | 1.97 ± 0.057 |
| KMELVYVSDSDDSSSDN [SIR4] | 2.7 ± 0.059 | 2.68 ± 0.058 | 2.47 ± 0.078 | 2.59 ± 0.067 |
| KGVYLILSEILCQINKC [YML103C/NUP188] | 1.86 ± 0.055 | 1.56 ± 0.047 | 2.23 ± 0.075 | 1.88 ± 0.032 |
| QEKQEQQEQDKKKKSNH [PRE6] | 1.97 ± 0.048 | 1.81 ± 0.044 | 2.55 ± 0.06 | 1.65 ± 0.04 |
| CYVGLLTAIPILLEPIY [SNU114] | 1.31 ± 0.045 | 1.23 ± 0.035 | 1.28 ± 0.064 | 1.34 ± 0.038 |
| TGKTLLAKAVAATIGAN [RPT4] | 1.46 ± 0.074 | 1.75 ± 0.084 | 1.68 ± 0.16 | 2.08 ± 0.13 |
| VRDVAAQDFINAYASFL [RPS19A] | 2.85 ± 0.078 | 2.5 ± 0.092 | 2.96 ± 0.22 | 2.21 ± 0.088 |
| RSPEEIRRTFNIVNDFT [SKP1] | 1.36 ± 0.058 | 2.06 ± 0.094 | 1.53 ± 0.13 | 2.12 ± 0.04 |
| TFLSEWGMEPLEDYVPH [RPB2] | 3.17 ± 0.1 | 3.71 ± 0.23 | 3.13 ± 0.12 | 2.81 ± 0.14 |
| NSLKETLQDFHLIFSNA [SNF2] | 2.85 ± 0.072 | 2.82 ± 0.068 | 2.27 ± 0.13 | 2.44 ± 0.092 |
| RLTMGNVFTPEISSQIE [RRI2] | 2.7 ± 0.11 | 3.06 ± 0.079 | 2.95 ± 0.1 | 2.92 ± 0.09 |
| FTAGARAKIVKAGGECI [RPL18A] | 1.29 ± 0.081 | 1.27 ± 0.067 | 1.18 ± 0.17 | 1.13 ± 0.061 |
| KNTEEGKALVHHYEECA [QCR6] | 3.37 ± 0.067 | 3.29 ± 0.072 | 3.5 ± 0.051 | 3.38 ± 0.052 |
